From publication PMC3900572 (The Journal of neuroscience : the official journal of the …, 2010)

Molecular target: RIBEYE(B)-MBP (rat, UniProt Q9EQH5-2 564-988)
Experiment: pull-down

B1: GST-tagged full-length bovine GCAP2 (amino acids 1–204) (natural protein, UniProt P51177 1-204, looked up)
chain: MGQQFSWEEAEENGAVGAADAAQLQEWYKKFLEECPSGTLFMHEFKRFFKVPDNEEATQYVEAMFRAFDTNGDNTIDFLEYVAALNLVLRGTLEHKLKWTFKIYDKDRNGCIDRQELLDIVESIYKLKKACSVEVEAEQQGKLLTPEEVVDRIFLLVDENGDGQLSLNEFVEGARRDKWVMKMLQMDLNPSSWISQQRRKSAMF
Kd: 2720 nM
